Experimental data reported in paper PMC11996885 (2025).
One block for each binder: values may come before it.

Target: FGFR2 on SNU16 cells (FGFR2 amplification) (human (endogenous in SNU16), UniProt P21802 22-821)
Test: FACS; apparent Kd, SNU16 cells

Chain of FGFR2 on SNU16 cells (FGFR2 amplification) (P21802 22-821): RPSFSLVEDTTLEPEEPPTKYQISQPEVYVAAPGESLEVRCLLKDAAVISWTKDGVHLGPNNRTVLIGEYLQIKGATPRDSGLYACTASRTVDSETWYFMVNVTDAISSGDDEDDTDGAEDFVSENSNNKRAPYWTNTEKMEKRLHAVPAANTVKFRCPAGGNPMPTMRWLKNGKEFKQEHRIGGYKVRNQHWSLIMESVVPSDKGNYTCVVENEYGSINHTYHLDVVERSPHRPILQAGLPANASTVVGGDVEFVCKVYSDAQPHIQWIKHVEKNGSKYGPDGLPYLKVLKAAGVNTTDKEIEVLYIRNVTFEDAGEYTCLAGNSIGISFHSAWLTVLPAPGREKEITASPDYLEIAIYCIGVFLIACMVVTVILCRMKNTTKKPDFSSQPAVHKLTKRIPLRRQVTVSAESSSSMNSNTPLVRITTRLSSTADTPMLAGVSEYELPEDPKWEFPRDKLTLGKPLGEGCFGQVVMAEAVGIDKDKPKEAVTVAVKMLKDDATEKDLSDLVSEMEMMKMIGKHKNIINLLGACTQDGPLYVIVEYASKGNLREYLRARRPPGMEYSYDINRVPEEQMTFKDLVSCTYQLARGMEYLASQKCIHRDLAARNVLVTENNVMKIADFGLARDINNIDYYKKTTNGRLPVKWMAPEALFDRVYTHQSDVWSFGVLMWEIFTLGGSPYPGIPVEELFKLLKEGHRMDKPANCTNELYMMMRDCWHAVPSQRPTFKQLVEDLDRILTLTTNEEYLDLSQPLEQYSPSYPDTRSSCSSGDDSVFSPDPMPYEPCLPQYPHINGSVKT

B1: FGFR2 parental antibody A (antibody, V domains shown)
VH: EVQLLESGGGLVQPGGSLRLSCAASGFTFSSYAMSWVRQAPGKGLEWVSAISGSGTSTYYADSVKGRFTISRDNSKNTLYLQMNSLRAEDTAVYYCARVRYNWNHGDWFDPWGQGTLVTVSS
VL: QSVLTQPPSASGTPGQRVTISCSGSSSNIGNNYVSWYQQLPGTAPKLLIYENYNRPAGVPDRFSGSKSGTSASLAISGLRSEDEADYYCSSWDDSLNYWVFGGGTKLTVL
Kd: 0.76 nM

B4: FGFR2 parental antibody B (antibody, V domains shown)
VH: QIQLVQSGPELKKPGETVKISCKASGYTFTDFGMNWMKQAPGKGFKWMGWINTSTGESTYADDFKGRFAFSLETSASTAYLQINNLKNEDMATYFCARNSYYGGSYGYWGQGTTLTVSS
VL: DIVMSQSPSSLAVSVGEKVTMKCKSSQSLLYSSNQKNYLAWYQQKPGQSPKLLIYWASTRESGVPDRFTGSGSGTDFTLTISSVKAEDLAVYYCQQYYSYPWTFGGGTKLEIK
Kd: 32.8 nM

B6: FGFR2 parental antibody C (antibody, V domains shown)
VH: QVQLVESGGGLVKPGGSLRLSCAASGFTFSSYALSWVRQAPGKGLEWVGRIRSKIDGGTTDYAAPVKGRFTISRDDSKNTLYLQMNSLKTEDTAVYYCARDRSPSDSSAFAIWGQGTLVTVSS
VL: DIELTQPPSVSVSPGQTASITCSGDNLGSQYVDWYQQKPGQAPVLVIYDDNDRPSGIPERFSGSNSGNTATLTISGTQAEDEADYYCQSWDSLSVVFGGGTKLTVL
Kd: 0.15 nM

More lines, in order of falling Kd, values ahead:

Kd: 9.4 nM
B3: FGFR2 parental antibody F (antibody, V domains shown)
VH: QVQLVQSGAEVKKPGESLKISCKGSGYSFTNYYIHWVRQMPGKGLEWMGAIYPDNSDTTYSPSFQGQVTISADKSISTAYLQWSSLKASDTAMYYCARGADIWGQGTLVTVSS
VL: DIQMTQSPSSLSASVGDRVTITCRASQDIDPYLSNWYQQKPGKAPKLLIYDASNLQSGVPSRFSGSGSGTDFTLTISSLQPEDFATYYCQQTTSHPYTFGQGTKVEIK

Kd: 1.99 nM
B5: FGFR2 parental antibody D (antibody, V domains shown)
VH: EVQLVESGGGLVQPGGSLRLSCAASGFPFTSTGISWVRQAPGKGLEWVGRTHLGDGSTNYADSVKGRFTISADTSKNTAYLQMNSLRAEDTAVYYCARTYGIYDTYDMYTEYVMDYWGQGTLVTVSS
VL: DIQMTQSPSSLSASVGDRVTITCRASQDVDTSLAWYKQKPGKAPKLLIYSASFLYSGVPSRFSGSGSGTDFTLTISSLQPEDFATYYCQQSTGHPQTFGQGTKVEIK

Kd: 1.77 nM
B2: FGFR2 parental antibody E (antibody, V domains shown)
VH: QVQLVQSGAEVKKPGSSVKVSCKASGYIFTTYNVHWVRQAPGQGLEWIGSIYPDNGDTSYNQNFKGRATITADKSTSTAYMELSSLRSEDTAVYYCARGDFAYWGQGTLVTVSS
VL: DIQMTQSPSSLSASVGDRVTITCKASQGVSNDYAWYQQKPGKAPKLLIYSASYRYTGVPSRFSGSGSGTDFTFTISSLQPEDIATYYCQQHSTTPYTFGQGTKLEIK
